Four molecules from US20190381086A1, “INHIBITION OF NEDDYLATION USING GLYCYL-tRNA SYNTHETASE INHIBITORS” (The Scripps Research Institute, priority 2015, published 2019) can be followed below.

The assay concerns the target T1, Ubc12^N8 (Homo sapiens, UniProt P61081+Q15843, C111S).
T1 construct: DEN1 which processes NEDD8 to its mature, 76-amino acid form; made in house; conjugate made enzymatically in vitro
In words: Biolayer interferometry, immobilized Ubc12^N8. The class given is binding. Conditions: for Kd: binding to immobilized Ubc12^N8. Here is the method:
V5-tagged GlyRS and Flag-tagged Ubc12-C111S genes were co-transfected to HEK293 cell for the assay. FIG. 3B: Strong binding of Ubc12^N8 to GlyRS as determined by biolayer interferometry. A.U. indicates Arbitrary Unit. Binding analysis to immobilized GST-GlyRS was carried out with the same concentration (62.5 nM) of NEDD8, Ubc12, or Ubc12^N8 at 30°. FIG. 3C: Biolayer interferometry analysis confirms that GlyRS binding to Ubc12^N8. Binding analysis to immobilized Ubc12^N8 was carried out with a range of concentrations of full-length (8.07 nM-129 nM) GlyRS. FIG. 3D: Structural model of the GlyRS-Ubc12^N8 interaction generated using Patchdock (a server for molecular docking). FIGS. 3E-G: Biolayer interferometry analysis confirms that F84-L93 and I232-M238 regions, but not Insertion 1, are important for GlyRS binding to Ubc12^N8. Binding analysis to immobilized Ubc12^N8 was carried out with a range of concentrations (1.25-20 μg/mL) of ΔF84-L93 (8.16-130 nM), ΔI232-M238 (8.13-130 nM), and Alnsertion 1 (62.5-125 nM) GlyRS. FIG. 3H: Over-expression of ΔI232-M238 GlyRS in HEK293 cells cannot promote NEDD8 conjugation of Ubc12. HEK293 cells were transfected with pcDNA6V5 vectors containing the indicated gene fragment with a V5-tag.
The conjugated Ubc12 was prepared by mixing APPBP1/UBA3 (2 μM), Ubc12 (C111S; the mutant would form a stable ester linkage to NEDD8) (70 μM), and His-SUMO-tagged NEDD8 (100 μM). The mixture was incubated at 25° C. for 16 h in 50 mM NaOAc pH 5.5, 50 mM NaCl, 1 mM MgCl2, and 2 mM ATP. Ubc12^N8 was then purified by gel filtration chromatography using a Superdex 200 column. The fractions containing only Ubc12^N8 were concentrated and used for the study. The purity of proteins was examined by SDS-PAGE to be above 95%.
The dissociation constants (Kd) were obtained with biolayer interferometry by using an Octet QK system (ForteBio, Menlo Park, Calif., USA). Samples or buffer were dispensed into 96-well plates (Millipore, Billerica, Mass.) at 200 μL per well. Operating temperature was maintained at 30° C. Proteins were diluted into kinetic buffer (PBS with 0.1% BSA and 0.002% Tween-20) and immobilized on either anti-GST or Ni-NTA sensor tips. The other proteins were diluted using the same buffer into a range of different concentrations. Assays with Ubc12^N8 were carried out using the acid kinetic buffer (50 mM NaOAc pH 5.5, 50 mM NaCl, 0.1% BSA, and 0.002% Tween-20). The raw data were processed by subtraction to reference cells and then aligned with baselines. The dissociation constants Kd were obtained by fitting the processed data using the 1:1 model in the Octet analysis software with R^2>0.99.
Indeed, GlyRS can bind to Ubc12^N8 in HEK293 cells as detected by co-immunoprecipitation (FIG. 3a). […] To quantify the difference, Ubc12^N8 was enzymatically made and purified, and its binding affinity to GlyRS was measured using biolayer interferometry. […] Therefore, it is possible that GlyRS enhances neddylation by protecting reaction intermediate Ubc12^N8.
Using the crystal structure of human GlyRS16 and of Ubc12N8 (adapted from its complex with substrate cullin and E3), a model was generated for the GlyRS-Ubc12^N8 interaction using the Patchdock algorithm (http://bioinfo3d.cs.tau.ac.il/PatchDock/). […]
Background: In BLI a coated tip is dipped into the sample, and binding shifts an interference pattern.

T1 sequence (P61081 whole entry C111S): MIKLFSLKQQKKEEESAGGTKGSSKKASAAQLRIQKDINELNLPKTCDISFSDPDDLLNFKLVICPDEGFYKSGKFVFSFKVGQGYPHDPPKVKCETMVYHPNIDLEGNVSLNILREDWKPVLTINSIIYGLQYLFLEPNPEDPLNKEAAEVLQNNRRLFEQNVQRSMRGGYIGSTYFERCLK
T1 sequence (Q15843 1-76 limits assumed): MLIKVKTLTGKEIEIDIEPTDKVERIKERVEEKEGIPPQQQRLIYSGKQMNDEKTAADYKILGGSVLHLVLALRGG

B1: GlyRS: human Glycyl-tRNA synthetase, recombinant full-length protein (SEQ ID NO: 2) (protein, listed as Homo sapiens)
chain: MDGAGAEEVLAPLRLAVRQQGDLVRKLKEDKAPQVDVDKAVAELKARKRVLEAKELALQPKDDIVDRAKMEDTLKRRFFYDQAFAIYGGVSGLYDFGPVGCALKNNIIQTWRQHFIQEEQILEIDCTMLTPEPVLKTSGHVDKFADFMVKDVKNGECFRADHLLKAHLQKLMSDKKCSVEKKSEMESVLAQLDNYGQQELADLFVNYNVKSPITGNDLSPPVSFNLMFKTFIGPGGNMPGYLRPETAQGIFLNFKRLLEFNQGKLPFAAAQIGNSFRNEISPRSGLIRVREFTMAEIEHFVDPSEKDHPKFQNVADLHLYLYSAKAQVSGQSARKMRLGDAVEQGVINNTVLGYFIGRIYLYLTKVGISPDKLRFRQHMENEMAHYACDCWDAESKTSYGWIEIVGCADRSCYDLSCHARATKVPLVAEKPLKEPKTVNVVQFEPSKGAIGKAYKKDAKLVMEYLAICDECYITEMEMLLNEKGEFTIETEGKTFQLTKDMINVKRFQKTLYVEEVVPNVIEPSFGLGRIMYTVFEHTFHVREGDEQRTFFSFPAVVAPFKCSVLPLSQNQEFMPFVKELSEALTRHGVSHKVDDSSGSIGRRYARTDEIGVAFGVTIDFDTVNKTPHTATLRDRDSMRQIRAEISELPSIVQDLANGNITWADVEARYPLFEGQETGKKETIEE
What is called Kd is the equilibrium constant for the complex coming apart. Low readings indicate a tighter complex, high ones a looser complex. Consider B1, for which the affinity, expressed as Kd, was 3.21 ± 0.17 nM.

B2: A232-238: GlyRS deletion mutant, I232-M238 replaced by GG (protein)
chain: MDGAGAEEVLAPLRLAVRQQGDLVRKLKEDKAPQVDVDKAVAELKARKRVLEAKELALQPKDDIVDRAKMEDTLKRRFFYDQAFAIYGGVSGLYDFGPVGCALKNNIIQTWRQHFIQEEQILEIDCTMLTPEPVLKTSGHVDKFADFMVKDVKNGECFRADHLLKAHLQKLMSDKKCSVEKKSEMESVLAQLDNYGQQELADLFVNYNVKSPITGNDLSPPVSFNLMFKTFGGPGYLRPETAQGIFLNFKRLLEFNQGKLPFAAAQIGNSFRNEISPRSGLIRVREFTMAEIEHFVDPSEKDHPKFQNVADLHLYLYSAKAQVSGQSARKMRLGDAVEQGVINNTVLGYFIGRIYLYLTKVGISPDKLRFRQHMENEMAHYACDCWDAESKTSYGWIEIVGCADRSCYDLSCHARATKVPLVAEKPLKEPKTVNVVQFEPSKGAIGKAYKKDAKLVMEYLAICDECYITEMEMLLNEKGEFTIETEGKTFQLTKDMINVKRFQKTLYVEEVVPNVIEPSFGLGRIMYTVFEHTFHVREGDEQRTFFSFPAVVAPFKCSVLPLSQNQEFMPFVKELSEALTRHGVSHKVDDSSGSIGRRYARTDEIGVAFGVTIDFDTVNKTPHTATLRDRDSMRQIRAEISELPSIVQDLANGNITWADVEARYPLFEGQETGKKETIEE
Regarding B2, the “binding of GlyRS to Ubc12^N8” value (immobilized Ubc12^N8, FIG. 3f) is given as “abolished the binding completely”.

B3: Insertion 1: GlyRS with Insertion 1 deleted (F147-F224 replaced by GSGSGG) (protein)
chain: MDGAGAEEVLAPLRLAVRQQGDLVRKLKEDKAPQVDVDKAVAELKARKRVLEAKELALQPKDDIVDRAKMEDTLKRRFFYDQAFAIYGGVSGLYDFGPVGCALKNNIIQTWRQHFIQEEQILEIDCTMLTPEPVLKTSGHVDKFADGSGSGGNLMFKTFIGPGGNMPGYLRPETAQGIFLNFKRLLEFNQGKLPFAAAQIGNSFRNEISPRSGLIRVREFTMAEIEHFVDPSEKDHPKFQNVADLHLYLYSAKAQVSGQSARKMRLGDAVEQGVINNTVLGYFIGRIYLYLTKVGISPDKLRFRQHMENEMAHYACDCWDAESKTSYGWIEIVGCADRSCYDLSCHARATKVPLVAEKPLKEPKTVNVVQFEPSKGAIGKAYKKDAKLVMEYLAICDECYITEMEMLLNEKGEFTIETEGKTFQLTKDMINVKRFQKTLYVEEVVPNVIEPSFGLGRIMYTVFEHTFHVREGDEQRTFFSFPAVVAPFKCSVLPLSQNQEFMPFVKELSEALTRHGVSHKVDDSSGSIGRRYARTDEIGVAFGVTIDFDTVNKTPHTATLRDRDSMRQIRAEISELPSIVQDLANGNITWADVEARYPLFEGQETGKKETIEE
Molecule B3 gave a Kd of 4.32 ± 0.12 nM.

B4: A84-93: GlyRS deletion mutant, F84-L93 replaced by GGG (protein)
chain: MDGAGAEEVLAPLRLAVRQQGDLVRKLKEDKAPQVDVDKAVAELKARKRVLEAKELALQPKDDIVDRAKMEDTLKRRFFYDQAGGGYDFGPVGCALKNNIIQTWRQHFIQEEQILEIDCTMLTPEPVLKTSGHVDKFADFMVKDVKNGECFRADHLLKAHLQKLMSDKKCSVEKKSEMESVLAQLDNYGQQELADLFVNYNVKSPITGNDLSPPVSFNLMFKTFIGPGGNMPGYLRPETAQGIFLNFKRLLEFNQGKLPFAAAQIGNSFRNEISPRSGLIRVREFTMAEIEHFVDPSEKDHPKFQNVADLHLYLYSAKAQVSGQSARKMRLGDAVEQGVINNTVLGYFIGRIYLYLTKVGISPDKLRFRQHMENEMAHYACDCWDAESKTSYGWIEIVGCADRSCYDLSCHARATKVPLVAEKPLKEPKTVNVVQFEPSKGAIGKAYKKDAKLVMEYLAICDECYITEMEMLLNEKGEFTIETEGKTFQLTKDMINVKRFQKTLYVEEVVPNVIEPSFGLGRIMYTVFEHTFHVREGDEQRTFFSFPAVVAPFKCSVLPLSQNQEFMPFVKELSEALTRHGVSHKVDDSSGSIGRRYARTDEIGVAFGVTIDFDTVNKTPHTATLRDRDSMRQIRAEISELPSIVQDLANGNITWADVEARYPLFEGQETGKKETIEE
B4: binding was put at a Kd of 27 ± 0.4 nM. Also, the “fold decrease of binding of GlyRS to Ubc12^N8” value (versus full-length GlyRS) is 9 fold.
